Square brackets hold non-standard residues; d marks the D form. Peptide text beside a SMILES is read from it. * marks the point of attachment. DOTA = O=C(O)CN1CCN(CC(=O)O)CCN(CC(=O)*)CCN(CC(=O)O)CC1; Cha = N[C@@H](CC1CCCCC1)C(=O)O; Nle = CCCC[C@H](N)C(=O)O; Ahx = NCCCCCC(=O)O
Columns and labels:
[1] = target: T1, BN/GRP receptor-positive MDA-MB-231 human breast cancer cells (Homo sapiens, UniProt P30550); assay: Saturation binding assay on MDA-MB-231 cells; conditions: n = 3-5 experiments
T1 construct: BN/GRP receptor-positive MDA-MB-231, MCF7, T47D human breast cancer, and PC3 human prostate cancer lines; host or cells: MDA-MB-231, MCF7, T47D (human breast cancer), PC3 (human prostate cancer); intact cells
Protocol: (§1) The cell binding of ^68Ga-radiolabeled peptides into BN/GRP receptor-positive MDA-MB-231, MCF7, T47D human breast cancer, and PC3 human prostate cancer lines (American Type Culture Collection, Rockville, MD, USA) was performed according to the method described previously. In brief, ∼ 300,000 cells (in 300 μL in low-serum media) were incubated with various amounts of radiopeptides, ranging between 0.1 and 25 nM of peptide (prepared from the serial dilutions of HPLC-purified radiopeptides), in duplicate for 60 min at room temperature. The initial concentrations of ^68Ga-labeled peptides were determined according to a well-established HPLC technique with simultaneous detection by UV absorbance. As the amount of BN peptide in the reaction mixture was too small to be detected by UV absorption at 220 nm, the radioactive peptide chromatograms from the HPLC analysis were compared (with UV chromatograms) with those of known concentrations of the corresponding nonradioactive peptides for the mass determination. Incubation was terminated by dilution with cold saline (300 μL) and the cells were pelleted by centrifugation. The cell pellets was then rapidly washed with cold saline to remove any unbound peptide and centrifuged to collect supernatants. Radioactivity in the cell pellet and the washings was measured in a γ-counter. Non-specific binding was determined in the presence of ~ 200-fold molar excess of unlabeled BN peptide. Specific binding is calculated by subtracting the non-specifically bound radioactivity from that of the total binding. The dissociation constant (Kd) was calculated using a plot of cell bound activity versus the concentration of the radioligand using GraphPad Prism software (GraphPad Software Inc., San Diego, CA, USA).

[2] = target: T2, BN/GRP receptor-positive MCF7 human breast cancer cells (Homo sapiens, UniProt P30550); assay: Saturation binding assay on MCF7 cells; conditions: n = 3-5 experiments
T2 construct: BN/GRP receptor-positive MDA-MB-231, MCF7, T47D human breast cancer, and PC3 human prostate cancer lines; host or cells: MDA-MB-231, MCF7, T47D (human breast cancer), PC3 (human prostate cancer); intact cells
Protocol: as §1

[3] = target: T3, BN/GRP receptor-positive T47D human breast cancer cells (Homo sapiens, UniProt P30550); assay: Saturation binding assay on T47D cells; conditions: n = 3-5 experiments
T3 construct: BN/GRP receptor-positive MDA-MB-231, MCF7, T47D human breast cancer, and PC3 human prostate cancer lines; host or cells: MDA-MB-231, MCF7, T47D (human breast cancer), PC3 (human prostate cancer); intact cells
Protocol: as §1

[4] = target: T4, BN/GRP receptor-positive PC3 human prostate cancer cells (Homo sapiens, UniProt P30550); assay: Saturation binding assay on PC3 cells; conditions: n = 3-5 experiments
T4 construct: BN/GRP receptor-positive MDA-MB-231, MCF7, T47D human breast cancer, and PC3 human prostate cancer lines; host or cells: MDA-MB-231, MCF7, T47D (human breast cancer), PC3 (human prostate cancer); intact cells
Protocol: as §1

in vivo = assay: in vivo; parameters: species or system Balb/c mice; conditions: Balb/c, mouse, iv
Protocol: Approval for the animal protocol used in this study was obtained from the Institutional Animal Care and Use Committee. Animal studies were conducted according to the international regulations governing the safe and proper use of laboratory animals. In vivo biodistribution were performed on healthy Balb/c mice (n = 3–5 in each group, body weight 19–22 g) at 1 and 2 h after intravenous injection of the HPLC-purified radiopeptide (100 μL, 15–20 μCi, total peptide dose ~ 20 ng) via the lateral tail vein. The mice were sacrificed by cervical dislocation at specified time points and blood samples were withdrawn with a syringe from the heart. Major organs such as lungs, stomach, spleen, pancreas, intestines, liver, kidneys, etc. were isolated, weighed, and radioactivity in each organs and tissues were measured using a γ-scintillation counter. Uptake of radioactivity in the tissues and organs was expressed as the percent injected dose per gram (% ID/g) of tissue/organ, which was calculated by comparison with standard solutions representing 10% of the injected dose per animal. For the clearance studies, radioactivity in the urine with bladder and feces is expressed as the percent of the injected dose per tissue (% ID). Values are expressed as mean ± SD for a group of 3-5 animals at each time point.

MDA-MB-231 tumors = assay: in vivo; type: in vivo, nude mice; conditions: for Radioactivity in Urine + bladder / Uptake in Blood / Uptake in Intestines (measured without their contents) / Uptake in Kidneys / Uptake in Liver / Uptake in Lungs / Uptake in Muscle / Uptake in Pancreas / Uptake in Spleen / Uptake in Stomach: female, nude, mouse, in vivo; for Uptake in Tumor: nude mice with MDA-MB-231 tumors, mean ± SD, n = 3-5
Protocol: BN/GRP receptor-positive MDA-MB-231 and PC3 cell lines (American Type Culture Collection, Rockville, USA) were grown as monolayers at 37 °C in a humidified atmosphere containing RPMI-1640 culture media with 10% fetal bovine serum (FBS) in tissue culture flasks. Twenty-four hours prior to conducting the tumor implantation, the media was replaced with RPMI-1640/10% FBS. The cells were grown to 80-90% confluency and harvested by trypsinization. After centrifugation, about 50 million cells were suspended in 1 mL media for implantation into mice. To prepare cells for inoculation, MDA-MB-231 or PC3 cancer cells with media were centrifuged, the media decanted, and the cell pellet was mixed with phosphate-buffered saline (PBS) to reach a concentration of approximately 5 million cells per 100 μL PBS. Human MDA-MB-231 breast cancer xenografts female mouse models were used for in vivo tumor-targeting experiments. For the implantation of tumor xenografts, approximately five million MDA-MB-231 cells in suspension of 100 μL sterile PBS were injected subcutaneously into the left thigh of each mouse. Tumors were allowed to grow for 4-6 weeks by which tumors had reached weights of 200-300 mg. After sufficient growth of tumors, animals were injected with 20-30 μCi of the radiotracers and the animals were sacrificed at specified time points. The uptake of ^68Ga-radiolabeled peptides in the tumors and other major body organs was calculated by γ-counting as described above.

[5] = ~300,000 cells, 0.1-25 nM radiopeptide, 60 min, room temperature, mean ± SD

Q: With `CCCC[C@H](NC(=O)[C@H](Cc1c[nH]cn1)NC(=O)[C@H](CC1CCCCC1)NC(=O)[C@@H](NC(=O)[C@H](C)NC(=O)[C@H](Cc1c[nH]c2ccccc12)NC(=O)[C@H](CCC(N)=O)NC(=O)[C@H](CS)NC(=O)CNC(=O)CNC(=O)CCCCCNC(=O)CN1CCN(CC(=O)O)CCN(CC(=O)O)CCN(CC(=O)O)CC1)C(C)C)C(=O)N[C@@H](CCSC)C(N)=O` [^68Ga-DOTA-Ahx-BN Tris-, metal not drawn] ({DOTA-Ahx}-GGCQWAV[Cha]H[Nle]M-NH2) as the compound, how does the “Bmax (apparent number of binding sites per cell)” value ([1]; SD < 15%) read?
A: 5.27 × 10^5 sites/cell

Q: What about the Kd [1, 5] of the same compound?
A: 11.6 ± 3.05 nM

Q: And the “Bmax (apparent number of binding sites per cell)” value ([2]; SD < 15%)?
A: 6.22 × 10^5 sites/cell

Q: What about the Kd [2, 5] of the same compound?
A: 9.32 ± 1.5 nM

Q: And the “Bmax (apparent number of binding sites per cell)” value ([3]; SD < 15%)?
A: 4.91 × 10^5 sites/cell

Q: And the Kd [3, 5]?
A: 14.5 ± 2.4 nM

Q: What about the “Bmax (apparent number of binding sites per cell)” value ([4]; SD < 15%) of the same compound?
A: 4.88 × 10^5 sites/cell

Q: And the Kd [4, 5]?
A: 10.4 ± 1.71 nM

Q: What about the “%ID excreted in Feces” value (in vivo; 1 h) of the same compound?
A: 0.83 ± 0.19 %ID

Q: And the “%ID excreted in Urine” value (in vivo; 1 h)?
A: 74.0 ± 8.03 %ID

Q: And the “Uptake in Blood” value (in vivo; 1 h)?
A: 0.29 ± 0.05 %ID/g

Q: And the “Uptake in Bone” value (in vivo; 1 h)?
A: 0.17 ± 0.03 %ID/g

Q: And the “Uptake in Intestines (measured without their contents)” value (in vivo; 1 h)?
A: 0.67 ± 0.12 %ID/g

Q: And the “Uptake in Kidneys” value (in vivo; 1 h)?
A: 2.89 ± 0.41 %ID/g

Q: And the “Uptake in Liver” value (in vivo; 1 h)?
A: 1.12 ± 0.30 %ID/g

Q: What about the “Uptake in Lungs” value (in vivo; 1 h) of the same compound?
A: 0.36 ± 0.10 %ID/g

Q: And the “Uptake in Pancreas” value (in vivo; 1 h)?
A: 2.0 ± 0.27 %ID/g

Q: And the “Uptake in Spleen” value (in vivo; 1 h)?
A: 0.09 ± 0.01 %ID/g

Q: What about the “Uptake in Stomach” value (in vivo; 1 h) of the same compound?
A: 1.71 ± 0.19 %ID/g

Q: What about the “%ID excreted in Feces” value (in vivo; 2 h) of the same compound?
A: 0.69 ± 0.10 %ID

Q: What about the “%ID excreted in Urine” value (in vivo; 2 h) of the same compound?
A: 69.0 ± 5.15 %ID

Q: What about the “Uptake in Blood” value (in vivo; 2 h) of the same compound?
A: 0.17 ± 0.02 %ID/g

Q: What about the “Uptake in Bone” value (in vivo; 2 h) of the same compound?
A: 0.09 ± 0.01 %ID/g

Q: And the “Uptake in Intestines (measured without their contents)” value (in vivo; 2 h)?
A: 0.43 ± 0.09 %ID/g

Q: What about the “Uptake in Kidneys” value (in vivo; 2 h) of the same compound?
A: 1.63 ± 0.24 %ID/g

Q: And the “Uptake in Liver” value (in vivo; 2 h)?
A: 0.53 ± 0.09 %ID/g

Q: And the “Uptake in Lungs” value (in vivo; 2 h)?
A: 0.22 ± 0.05 %ID/g

Q: And the “Uptake in Pancreas” value (in vivo; 2 h)?
A: 1.25 ± 0.13 %ID/g

Q: And the “Uptake in Spleen” value (in vivo; 2 h)?
A: 0.06 ± 0.0 %ID/g

Q: What about the “Uptake in Stomach” value (in vivo; 2 h) of the same compound?
A: 0.48 ± 0.06 %ID/g

Q: What about the “Radioactivity in Urine + bladder” value (MDA-MB-231 tumors; 1 h) of the same compound?
A: 66.0 ± 6.60 % injected dose per tissue

Q: And the “Uptake in Blood” value (MDA-MB-231 tumors; 1 h)?
A: 0.70 ± 0.12 % ID/g

Q: And the “Uptake in Intestines (measured without their contents)” value (MDA-MB-231 tumors; 1 h)?
A: 0.89 ± 0.12 % ID/g

Q: And the “Uptake in Kidneys” value (MDA-MB-231 tumors; 1 h)?
A: 4.85 ± 0.43 % ID/g

Q: And the “Uptake in Liver” value (MDA-MB-231 tumors; 1 h)?
A: 2.20 ± 0.33 % ID/g

Q: What about the “Uptake in Lungs” value (MDA-MB-231 tumors; 1 h) of the same compound?
A: 1.86 ± 0.14 % ID/g

Q: And the “Uptake in Muscle” value (MDA-MB-231 tumors; 1 h)?
A: 0.28 ± 0.04 % ID/g

Q: What about the “Uptake in Pancreas” value (MDA-MB-231 tumors; 1 h) of the same compound?
A: 1.30 ± 0.18 % ID/g

Q: And the “Uptake in Spleen” value (MDA-MB-231 tumors; 1 h)?
A: 0.33 ± 0.02 % ID/g

Q: What about the “Uptake in Stomach” value (MDA-MB-231 tumors; 1 h) of the same compound?
A: 0.87 ± 0.11 % ID/g

Q: And the “Radioactivity in Urine + bladder” value (MDA-MB-231 tumors; 2 h)?
A: 68.0 ± 7.55 % injected dose per tissue

Q: What about the “Uptake in Blood” value (MDA-MB-231 tumors; 2 h) of the same compound?
A: 0.60 ± 0.09 % ID/g

Q: And the “Uptake in Intestines (measured without their contents)” value (MDA-MB-231 tumors; 2 h)?
A: 0.50 ± 0.10 % ID/g

Q: What about the “Uptake in Kidneys” value (MDA-MB-231 tumors; 2 h) of the same compound?
A: 3.74 ± 0.24 % ID/g

Q: What about the “Uptake in Liver” value (MDA-MB-231 tumors; 2 h) of the same compound?
A: 1.83 ± 0.24 % ID/g

Q: And the “Uptake in Lungs” value (MDA-MB-231 tumors; 2 h)?
A: 0.61 ± 0.07 % ID/g

Q: And the “Uptake in Muscle” value (MDA-MB-231 tumors; 2 h)?
A: 0.20 ± 0.02 % ID/g

Q: What about the “Uptake in Pancreas” value (MDA-MB-231 tumors; 2 h) of the same compound?
A: 0.75 ± 0.11 % ID/g

Q: What about the “Uptake in Spleen” value (MDA-MB-231 tumors; 2 h) of the same compound?
A: 0.16 ± 0.01 % ID/g

Q: And the “Uptake in Stomach” value (MDA-MB-231 tumors; 2 h)?
A: 0.60 ± 0.07 % ID/g

Q: And the “Uptake in Tumor” value (MDA-MB-231 tumors; 1 h p.i.)?
A: 2.09 ± 0.33 % ID/g

Q: What about the “Uptake in Tumor” value (MDA-MB-231 tumors; 2 h p.i.) of the same compound?
A: 1.62 ± 0.18 % ID/g

Source: publication PMC6733935, “A convenient and efficient total solid-phase synthesis of DOTA-functionalized tumor-targeting peptides for PET imaging of cancer” (EJNMMI Research, 2019)
